Our source for the Kd values is article PMC10763354 (2024).

This assay addresses Desulfovibrio vulgaris flagellin (Desulfovibrio vulgaris). The assay is described as follows: MST.

B1: leucine-rich repeat containing 19 (LRRC19) protein (receptor)
chain: SKREVQCNFTEKNYTLIPADIKKDVTILDLSYNQITLNGTDTRVLQTYFLLTELYLIENKVTILHNNGFGNLSSLEILNICRNSIYVIQQGAFLGLNKLKQLYLCQNKIEQLNADVFVPLRSLKLLNLQGNLISYLDVPPLFHLELITLYGNLWNCSCSLFNLQNWLNTSNVTLENENITMCSYPNSLQSYNIKTVPHKAECHSKFPSSVTEDLYIHFQPISNSIFNSSSNNLTRNSEHEPLGKSW
modifications: NT647 fluorescence dye (in the MST experiments only)
B1 showed a Kd of 1050 nM.
